Source: PMC4596477, “Interaction of Myosin Phosphatase Target Subunit (MYPT1) with Myosin Phosphatase-RhoA Interacting Protein (MRIP): A Role of Glutamic Acids in the Interaction” (PLoS ONE, 2015)
Where a chain is given by its changes, count along the chain named. In names and notes the source's numbering stands.

Columns and labels:
[1] = target: T1, MRIP^724-878 (myosin phosphatase-RhoA interacting protein, residues 724–878; CC2-CC4) (UniProt Q6WCQ1 724-878); assay: SPR; Biacore 3000, 25°C; MRIP^724-878 immobilised (1800 RU) by amine coupling on CM5, analytes CCLR (167–1 μM), CC (318–10 μM), LR (569–5 μM); reference surface G-actin; 50 mM potassium phosphate pH 7.4, 100 mM KCl; steady-state affinity fit; settings: both partners purified
T1 construct: Tight homodimer in solution by AUC; the forward primer puts an NdeI ATG before the codons GAGCGAGGGTTTGCAGCAATG; source: E. coli BL21 (DE3), purified (chitin beads, C8 reversed-phase HPLC)
T1 sequence (looked up): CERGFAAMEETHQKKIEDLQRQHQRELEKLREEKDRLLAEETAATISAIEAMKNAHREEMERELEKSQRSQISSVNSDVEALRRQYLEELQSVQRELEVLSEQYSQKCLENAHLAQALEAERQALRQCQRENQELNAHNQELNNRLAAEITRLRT

[2] = target: T1, MRIP^724-878 (myosin phosphatase-RhoA …); assay: SPR; Biacore 3000, 25°C; LR immobilised (244.8 RU) by amine coupling on CM5, analyte MRIP^724-878 (85.6–0.7 μM); reference surface a nebulin-derived peptide; 50 mM potassium phosphate pH 7.4, 100 mM KCl; steady-state affinity fit; settings: both partners purified
[3] = target: T2, MRIP^724-878 (Homo sapiens, UniProt Q6WCQ1); assay: AUC interaction of MYPT1 peptides (CC, LR and LR mutants) with MRIP^724-878; format: binding; settings: equimolar mixture (CC: 50 μM each) and dilutions, pH 7.4, 100 mM KCl, 20°C
T2 construct: MRIP^724-878 (residues 724–878; CC2-CC4); made in house; host or cells: Escherichia coli BL21 (DE3)
T2 sequence (Q6WCQ1 725-879): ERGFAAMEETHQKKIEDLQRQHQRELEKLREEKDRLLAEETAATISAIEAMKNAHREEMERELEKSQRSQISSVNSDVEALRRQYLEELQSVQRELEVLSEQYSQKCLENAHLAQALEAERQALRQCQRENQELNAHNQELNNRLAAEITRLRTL
From the text: (§1) To determine the minimal MRIP-binding region of MYPT1, AUC was employed to examine interactions between sub-domains of CCLR, CC (residues 924–990) and LR (residues 991–1030) with MRIP^724-878 (Fig 4A). CC is the putative coiled coil domain and LR contains 16 upstream amino acid residues (residues 991–1006) in addition to the leucine repeat (residues 1007–1028). MRIP^724-878 was chosen because of its good fit to a single component, single-species model. […] Global fitting of the mixture to a two-component model produced a good fit and the RMSD of the fit was 0.010 (Fig 4B; Fitting of CC).
The coiled coil is a common protein-protein interaction domain. The MRIP peptides in this study have putative coiled coil domains and are α-helical. In contrast, the MYPT1 peptide, LR is not α-helical even though it contains the leucine repeat. Thus, we hypothesized that charged residues of MYPT1 might participate in the MYPT1/MRIP interaction with its leucine residues. We generated various LR peptides representing mutations in charged residues (Fig 6A) and examined their bindings to MRIP^724-878 (Fig 6B).
Fig 6 Glutamic acids within LR enhance the MRIP-binding affinity. (A) Amino acid sequences of the wild-type LR (WT-LR) and mutant LR peptides. Charged residues are in bold, the leucine repeat is in Italic, and substitution mutations are underlined. (B) Time derivative s*lg(s*) graphs: Line, MRIP^724-878 alone (50 μM); filled-in circles, original mixture of MRIP^724-878/each mutant LR peptide (50 μM each except for R992D/R993D and E996K whose mixtures consisted of excess amount of the mutant LR peptides); open circles, a three-fold dilution of the original mixture. The molar mass of the complex differs slightly from that of MRIP^724-878 dimer (37.9 kDa vs 37.4 kDa), and thus the shift in the main peak position is not easily discernable in many cases.
The cDNA fragment encoding MRIP peptides were amplified using a full-length MRIP cDNA as a template with the following primer pairs: MRIP^545-878, 5’-[…]/5’[…]; MRIP^724-878, 5’-[…]/5’-[…]; MRIP^724-837, 5’-[…]/5’-[…]. The PCR products were ligated into pCR2.1-TOPO using the TA cloning system and sequenced in both directions. The IMPACT™ (Intein Mediated Purification with an Affinity Chitin-binding Tag) Kit (New England BioLabs) was used to express peptides in bacteria to obtain tag-free peptides. The PCR amplicon encoding MRIP peptides were fused in frame to the chitin binding domain of pTYB12 vector utilizing the NdeI/EcoRI restriction sites. The expression vectors for the MYPT1 peptides, CCLR (residues 924–1030), CC (residues 924–990), and LR (residues 991–1030) were constructed as described: In the reference literature, CCLR and LR were named CCLZ and LZ, respectively. Recombinant peptides were produced in Escherichia coli strain BL21 (DE3) and purified using chitin beads according to the manufacturer's protocol. For further purification, the eluent from chitin beads was loaded on a Vydac C8 reversed phase column and subjected to HPLC using an acetonitrile gradient. Purity and identity of the peptides were confirmed by polyacrylamide gel electrophoresis (PAGE) and mass spectrometry. For the mutagenesis study of LR, the wild-type and mutant LR peptides were synthesized, purified by reverse-phase HPLC, and lyophilized to dryness at the peptide core in Boston Biomedical Research Institute.
Sedimentation velocity experiments were done on a Beckman Instruments Optima XL-I analytical ultracentrifuge equipped with Rayleigh optics. The cells were equipped with sapphire windows and 12 mm charcoal-filled Epon centerpieces. Apparent sedimentation coefficient distribution patterns were computed by the time derivative method. Peptides were dialyzed against 50 mM potassium phosphate buffer (pH 7.4) containing 100 mM KCl, and 1 mM DTT at 4°C overnight and then subjected to AUC at 50,000 rpm and 20°C. […]

[4] = target: T2, MRIP^724-878; assay: SPR, MYPT1 peptides as analytes over immobilized MRIP^724-878; format: binding; settings: 25°C, pH 7.4, CCLR 167–1 μM, CC 318–10 μM, LR 569–5 μM
Method: To corroborate the results from AUC studies, SPR was employed. […] Equilibrium K d values were obtained by nonlinear curve fitting of reference-corrected curves using the steady-state affinity fitting model in BIAevaluation version 4–1.
Analytes CCLR, CC, LR: Interactions between analytes, CCLR (167–1 μM), CC (318–10 μM), and LR (569–5 μM) with immobilized ligand, MRIP^724-878 (1800 RU) after correction for nonspecific binding using G-actin (2230 RU). Shown is a representative out of 9 experiments for CCLR and 8 for LR in each, duplicates or triplicates. Insets show fittings of steady-state affinity. Ligand LR: Interaction of analyte, MRIP^724-878 (85.6–0.7 μM) with immobilized ligand, LR (244.8 RU) after correction for nonspecific binding using a nebulin-derived peptide (600 RU). Shown is a representative out of 6 experiments.
Binding analyses of SPR were conducted on a Biacore 3000 (GE Healthcare) at 25°C. Sensor chips and reagents for immobilization (1-ethyl-3-(3-dimethylaminopropyl) carbodiimide, N-hydroxyl-succinimide, and ethanolamine) were purchased from GE Healthcare. Peptides were immobilized onto a CM5 sensor chip at 232–5841 resonance units (RU) using amine coupling. Binding studies were done using two-fold serial dilutions of the peptides in 50 mM potassium phosphate buffer (pH 7.4) containing 100 mM KCl. […]

[5] = AUC of MYPT1 peptides alone (concentration dependence, self-association); format: physicochemical; settings: CC alone, 107 μM and 3-, 9-fold dilutions, MRIP^724-878 alone, 50 μM and 3-, pH 7.4, 20°C
From the text: as §1
Fig 4 LR contains sufficient residues for the MYPT1/MRIP interaction. […] CC; Concentration-normalized time derivative g(s*) plots of CC, MRIP^724-878, and equimolar mixtures of the two peptides: Black filled-in circles, an original CC alone (107 μM); dark gray filled-in circles, a 3-fold dilution of CC alone; light gray filled-in circles, a 9-fold dilution of CC alone; black filled-in triangles, an original MRIP^724-878 alone (50 μM); dark gray filled-in triangles, a 3-fold dilution of MRIP^724-878 alone; light gray filled-in triangles, a 9-fold dilution of MRIP^724-878 alone; a black line, an original equimolar mixture of MRIP^724-878/CC (50 μM each): a dark gray line, a 3-fold dilution of the mixture; a light gray line, a 9-fold dilution of the mixture. […]

[6] = tested on: MRIP; set-up: method as in PMID 16243315; settings: double point mutations in CC5; ref [12]; cited from earlier work

B1: LR, leucine repeat region of MYPT1 (residues 991–1030) (peptide, UniProt O14974 991-1030, looked up)
chain: ERRISEMEEELKMLPDLKADNQRLKDENGALIRVISKLSK
notes: no result of its own is told for it; also called WT-LR; source: E. coli BL21 (DE3), purified (chitin beads, C8 reversed-phase HPLC)
Kd [1]: 195 µM | Kd [2]: 40 µM

B2: CC: sub-domain of CCLR, residues 924–990; the putative coiled coil domain (protein, UniProt Q6WCQ1 924-990, looked up, fragment)
chain: KDELQTALRDKKYASDKYKDIYTELSIAKAKADCDISRLKEQLKAATEALGEKSPDSATVSGYDIMK
binding to MRIP^724-878 (g(s*) curves) [3]: no binding | complex formation with immobilized MRIP^724-878 [4]: did not | concentration dependence of g(s*) curves [5]: superimposable, indicating concentration-independence

B3: L905P/I912P: MRIP mutation employed by Mulder et al; double point mutation in CC5 (protein, UniProt Q6WCQ1 2-1025, looked up, variant L905P I912P)
Myosin phosphatase …: SAAKENPCRKFQANIFNKSKCQNCFKPRESHLLNDEDLTQAKPIYGGWLLLAPDGTDFDNPVHRSRKWQRRFFILYEHGLLRYALDEMPTTLPQGTINMNQCTDVVDGEGRTGQKFSLCILTPEKEHFIRAETKEIVSGWLEMLMVYPRTNKQNQKKKRKVEPPTPQEPGPAKVAVTSSSSSSSSSSSIPSAEKVPTTKSTLWQEEMRTKDQPDGSSLSPAQSPSQSQPPAASSLREPGLESKEEESAMSSDRMDCGRKVRVESGYFSLEKTKQDLKAEEQQLPPPLSPPSPSTPNHRRSQVIEKFEALDIEKAEHMETNAVGPSPSSDTRQGRSEKRAFPRKRDFTNEAPPAPLPDASASPLSPHRRAKSLDRRSTEPSVTPDLLNFKKGWLTKQYEDGQWKKHWFVLADQSLRYYRDSVAEEAADLDGEIDLSACYDVTEYPVQRNYGFQIHTKEGEFTLSAMTSGIRRNWIQTIMKHVHPTTAPDVTSSLPEEKNKSSCSFETCPRPTEKQEAELGEPDPEQKRSRARERRREGRSKTFDWAEFRPIQQALAQERVGGVGPADTHEPLRPEAEPGELERERARRREERRKRFGMLDATDGPGTEDAALRMEVDRSPGLPMSDLKTHNVHVEIEQRWHQVETTPLREEKQVPIAPVHLSSEDGGDRLSTHELTSLLEKELEQSQKEASDLLEQNRLLQDQLRVALGREQSAREGYVLQATCERGFAAMEETHQKKIEDLQRQHQRELEKLREEKDRLLAEETAATISAIEAMKNAHREEMERELEKSQRSQISSVNSDVEALRRQYLEELQSVQRELEVLSEQYSQKCLENAHLAQALEAERQALRQCQRENQELNAHNQELNNRLAAEITRLRTLLTGDGGGEATGSPLAQGKDAYELEVLPRVKESEPQYLKQEISSLKDELQTALRDKKYASDKYKDIYTELSIAKAKADCDISRLKEQLKAATEALGEKSPDSATVSGYDIMKSKSNPDFLKKDRSCVTRQLRNIRSKSVIEQVSWDT
oligomerization [6]: little oligomerization

B4: I919P/L926P: MRIP mutation employed by Mulder et al; double point mutation in CC5 (protein, UniProt Q6WCQ1 2-1025, looked up, variant I919P L926P)
Myosin phosphatase …: B3 Myosin phosphatase … with P905L, P912I, I919P, L926P
oligomerization [6]: little oligomerization
